# The supplement of paper PMC10567573
# B1: OAS1 (parent)
# chain: YIGTHEYPHFSHRPSTLQAASTPQ
# Variants of: B1
# Assay: protein stability index of a GFP-peptide fusion (GPS, HEK-293T) (PSI 1-6); higher = more stable
# Conditions: c terminus: a fixed tail appended
# 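Also: lentivirally expressed fusions sorted by FACS into six bins by GFP to DsRed ratio, PSI derived from sequencing read proportions per bin multiplied by bin number.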
row,Variant,protein stability index
1,YIGTHDYPHFSHRPSTLQAASTPQ [E6D],1.92
2,YIGTHIYPHFSHRPSTLQAASTPQ [E6I],1.75
3,YIGTHFYPHFSHRPSTLQAASTPQ [E6F],3.8
4,YIGTHHYPHFSHRPSTLQAASTPQ [E6H],2.32
5,YIGTHGYPHFSHRPSTLQAASTPQ [E6G],1.81
6,YIGTHPYPHFSHRPSTLQAASTPQ [E6P],1.5
7,YIGTHTYPHFSHRPSTLQAASTPQ [E6T],2.14
8,YIGTHCYPHFSHRPSTLQAASTPQ [E6C],2.26
9,YIGTHMYPHFSHRPSTLQAASTPQ [E6M],1.46
10,YIGTHAYPHFSHRPSTLQAASTPQ [E6A],2
11,YIGTHYYPHFSHRPSTLQAASTPQ [E6Y],1.89
12,YIGTHLYPHFSHRPSTLQAASTPQ [E6L],2.99
13,YIGTHKYPHFSHRPSTLQAASTPQ [E6K],2.06
14,YIGTHNYPHFSHRPSTLQAASTPQ [E6N],2.18
15,YIGTHQYPHFSHRPSTLQAASTPQ [E6Q],1.68
16,YIGTHSYPHFSHRPSTLQAASTPQ [E6S],1.79
17,YIGTHWYPHFSHRPSTLQAASTPQ [E6W],3.29
18,YIGTHVYPHFSHRPSTLQAASTPQ [E6V],1.88
19,YIGTHRYPHFSHRPSTLQAASTPQ [E6R],1.61
20,YIGTHEYPHFSHRASTLQAASTPQ [P14A],1.81
21,YIGTHEYPHFSHRSSTLQAASTPQ [P14S],1.64
22,YIGTHEYPHFSHRVSTLQAASTPQ [P14V],2.48
23,YIGTHEYPHFSHRCSTLQAASTPQ [P14C],1.78
24,YIGTHEYPHFSHRLSTLQAASTPQ [P14L],1.7

row,Variant,protein stability index
1,YIGTHEYPHFSHRISTLQAASTPQ [P14I],1.72
2,YIGTHEYPHFSHRNSTLQAASTPQ [P14N],2.1
3,YIGTHEYPHFSHRTSTLQAASTPQ [P14T],1.98
4,YIGTHEYPHFSHRDSTLQAASTPQ [P14D],2.1
5,YIGTHEYPHFSHRQSTLQAASTPQ [P14Q],2.22
6,YIGTHEYPHFSHRESTLQAASTPQ [P14E],2.17
7,YIGTHEYPHFSHRRSTLQAASTPQ [P14R],1.9
8,YIGTHEYPHFSHRFSTLQAASTPQ [P14F],1.49
9,YIGTHEYPHFSHRHSTLQAASTPQ [P14H],2.1
10,YIGTHEYPHFSHRGSTLQAASTPQ [P14G],2.21
11,YIGTHEYPHFSHRYSTLQAASTPQ [P14Y],2.09
12,YIGTHEYPHFSHRKSTLQAASTPQ [P14K],2.13
13,YIGTHEYPHFSHRWSTLQAASTPQ [P14W],2.81
14,YIGTHEYPHFSHRMSTLQAASTPQ [P14M],1.74
15,YIGTHEYPHFSHGPSTLQAASTPQ [R13G],1.92
16,YIGTHEYPHFSHAPSTLQAASTPQ [R13A],2.58
17,YIGTHEYPHFSHIPSTLQAASTPQ [R13I],1.92
18,YIGTHEYPHFSHEPSTLQAASTPQ [R13E],2.19
19,YIGTHEYPHFSHQPSTLQAASTPQ [R13Q],1.99
20,YIGTHEYPHFSHNPSTLQAASTPQ [R13N],1.8
21,YIGTHEYPHFSHCPSTLQAASTPQ [R13C],1.26
22,YIGTHEYPHFSHDPSTLQAASTPQ [R13D],2.52
23,YIGTHEYPHFSHVPSTLQAASTPQ [R13V],2.67
24,YIGTHEYPHFSHMPSTLQAASTPQ [R13M],2.19

row,Variant,protein stability index
1,YIGTHEYPHFSHFPSTLQAASTPQ [R13F],1.33
2,YIGTHEYPHFSHYPSTLQAASTPQ [R13Y],2.09
3,YIGTHEYPHFSHTPSTLQAASTPQ [R13T],1.79
4,YIGTHEYPHFSHWPSTLQAASTPQ [R13W],3.13
5,YIGTHEYPHFSHHPSTLQAASTPQ [R13H],2.29
6,YIGTHEYPHFSHKPSTLQAASTPQ [R13K],2.12
7,YIGTHEYPHFSHLPSTLQAASTPQ [R13L],1.66
8,YIGTHEYPHFSHSPSTLQAASTPQ [R13S],2.18
9,YIGTHEYGHFSHRPSTLQAASTPQ [P8G],1.39
10,YIGTHEYVHFSHRPSTLQAASTPQ [P8V],2
11,YIGTHEYNHFSHRPSTLQAASTPQ [P8N],2.05
12,YIGTHEYYHFSHRPSTLQAASTPQ [P8Y],1.92
13,YIGTHEYIHFSHRPSTLQAASTPQ [P8I],2.02
14,YIGTHEYCHFSHRPSTLQAASTPQ [P8C],2.12
15,YIGTHEYFHFSHRPSTLQAASTPQ [P8F],2.44
16,YIGTHEYKHFSHRPSTLQAASTPQ [P8K],2.08
17,YIGTHEYMHFSHRPSTLQAASTPQ [P8M],1.91
18,YIGTHEYHHFSHRPSTLQAASTPQ [P8H],2.45
19,YIGTHEYEHFSHRPSTLQAASTPQ [P8E],2.79
20,YIGTHEYRHFSHRPSTLQAASTPQ [P8R],1.63
21,YIGTHEYLHFSHRPSTLQAASTPQ [P8L],1.91
22,YIGTHEYTHFSHRPSTLQAASTPQ [P8T],1.54
23,YIGTHEYQHFSHRPSTLQAASTPQ [P8Q],1.95
24,YIGTHEYSHFSHRPSTLQAASTPQ [P8S],1.95

row,Variant,protein stability index
1,YIGTHEYDHFSHRPSTLQAASTPQ [P8D],2.35
2,YIGTHEYWHFSHRPSTLQAASTPQ [P8W],1.74
3,YIGTHEYAHFSHRPSTLQAASTPQ [P8A],1.74
4,YIGTHEYPVFSHRPSTLQAASTPQ [H9V],1.78
5,YIGTHEYPYFSHRPSTLQAASTPQ [H9Y],2.83
6,YIGTHEYPQFSHRPSTLQAASTPQ [H9Q],2.12
7,YIGTHEYPPFSHRPSTLQAASTPQ [H9P],1.44
8,YIGTHEYPIFSHRPSTLQAASTPQ [H9I],2.18
9,YIGTHEYPLFSHRPSTLQAASTPQ [H9L],1.67
10,YIGTHEYPSFSHRPSTLQAASTPQ [H9S],2.09
11,YIGTHEYPWFSHRPSTLQAASTPQ [H9W],3.41
12,YIGTHEYPCFSHRPSTLQAASTPQ [H9C],1.48
13,YIGTHEYPAFSHRPSTLQAASTPQ [H9A],1.87
14,YIGTHEYPRFSHRPSTLQAASTPQ [H9R],2.08
15,YIGTHEYPMFSHRPSTLQAASTPQ [H9M],2.33
16,YIGTHEYPDFSHRPSTLQAASTPQ [H9D],2.75
17,YIGTHEYPKFSHRPSTLQAASTPQ [H9K],1.94
18,YIGTHEYPFFSHRPSTLQAASTPQ [H9F],2.2
19,YIGTHEYPGFSHRPSTLQAASTPQ [H9G],1.95
20,YIGTHEYPTFSHRPSTLQAASTPQ [H9T],2.09
21,YIGTHEYPEFSHRPSTLQAASTPQ [H9E],3.17
22,YIGTHEYPNFSHRPSTLQAASTPQ [H9N],2.4
